Patent US11020455B2, “Colony stimulating factor for use in pancreatic or colon cancer treatment” (ENDOR TECHNOLOGIES, S.L., priority 2015, dated 2021)

B1: G-CSF: Granulocyte Colony Stimulating Factor, recombinant protein; Filgrastim (Amgen) used in the experiments (protein, UniProt P09919 31-207, looked up)
Granulocyte …: TPLGPASSLPQSFLLKCLEQVRKIQGDGAALQEKLVSECATYKLCHPEELVLLGHSLGIPWAPLSSCPSQALQLAGCLSQLHSGLFLYQGLLQALEGISPELGPTLDTLQLDVADFATTIWQQMEELGMAPALQPTQGAMPAFASAFQRRAGGVLVASHLQSFLEVSYRVLRHLAQP
modifications: N-terminal methionine (filgrastim)
notes: Granulocyte Colony Stimulating Factor, recombinant protein; Filgrastim (Amgen) used in the experiments

Experiments:
melanoma = details: subcutaneous long-term therapy after surgical resection; cited from earlier work
prostate cancer = details: patients with prostate cancer; cited from earlier work
sarcoma = details: monotherapy; cited from earlier work
[1] = test system: peripheral blood granulocytes; assay: Peripheral blood granulocyte levels after single subcutaneous G-CSF injection in healthy C57BJL6 mice; type: in vivo, mouse
Method: (§1) Depiction of the peripheral blood granulocytes levels in healthy C57BJL6 and Athymic nu/nu mice after the subcutaneous injection of a single dose of G-CSF (10 μg/kg) in C57BJL6, and 10, 25, 50 and 100 μg/kg of G-CSF in Athymic nu/nu mice. Blood samples were taken at different time points and peripheral blood granulocytes levels are represented as a total number of granulocytes (GRA×10^9/L).
(§2) As peripheral blood is the only tissue routinely available from mice, the peripheral blood hemogram was also assessed in order to provide information about the behavior of blood cell populations after the subcutaneous injection of different G-CSF doses (Filgrastim—Amgen). […] Inventors especially focused their attention on the distribution of granulocytes in the peripheral blood which was determined at 1, 5 or 2, 6, 10 and 24 hrs after an initial dose of G-CSF subcutaneously. Peripheral blood granulocytes levels were analyzed in healthy (FIG. 7), and tumor-bearing mice (FIG. 8). […]

[2] = test system: peripheral blood granulocytes; assay: Peripheral blood granulocyte levels after single subcutaneous G-CSF injection in healthy athymic nu/nu mice; type: in vivo, mouse
Method: as §1
(§3) As peripheral blood is the only tissue routinely available from mice, the peripheral blood hemogram was also assessed in order to provide information about the behavior of blood cell populations after the subcutaneous injection of different G-CSF doses (Filgrastim—Amgen). The peripheral blood collected from the right femoral artery with a heparinized syringe in vacutainer blood collection tubes containing EDTA (Sarstedt Microvette® CB 300) were immediately subjected to differential blood cell counts (red blood cells (RBCs), white blood cells (WBCs), and blood platelets (PLTs)) and measurement of blood hemoglobin concentration using a blood cell differential automatic analyzer (ABACUS JUNIOR VET). The data for each experimental group were obtained from three to five mice. Inventors especially focused their attention on the distribution of granulocytes in the peripheral blood which was determined at 1, 5 or 2, 6, 10 and 24 hrs after an initial dose of G-CSF subcutaneously. Peripheral blood granulocytes levels were analyzed in healthy (FIG. 7), and tumor-bearing mice (FIG. 8). C57BJL6 healthy mice were injected with G-CSF 10 μg/kg and healthy athymic nu/nu mice were injected with different doses of G-CSF: 0, 10, 25, 50 and 100 μg/kg (FIG. 7). Athymic nu/nu mice bearing subcutaneous MiaPaca tumor were injected with G-CSF 10, 25, 50 and 100 μg/kg and blood was extracted at 1.5 hr (FIG. 8).

Panc-1 SC tumors = assay: Antitumoral efficacy in Panc-1 SC tumor model (athymic nu/nu mice); type: in vivo, mouse; details: Panc-1, 10 μg/Kg SC daily, 48 days of treatment
Method: It is depicted the antitumoral efficacy of G-CSF in human pancreatic SC tumors. Athymic nu/nu mice bearing Panc-1 SC tumors were daily treated with subcutaneous G-CSF injection at a dose of 10 μg/Kg, while GE was injected intraperitoneal at a dose of 80 mg/Kg two times per week during the whole experiment. Total tumor volume (mm^3±SE) in saline (solid lines), G-CSF 10 μg/Kg (dashed lines) and GE 80 mg/kg (dotted) groups, for 48 days of treatment are represented.
(§4) Human pancreatic adenocarcinoma cell lines, Panc-1 and MiaPaca cells and the mouse pancreatic adenocarcinoma cells Panc02, were used for pancreatic cancer efficacy studies. Murine colorectal carcinoma cell line, Colon-26 cells, was used for colon cancer efficacy studies. […]
(§5) Mouse Models and Tumor Growth Studies Animal procedures met the guidelines of European Community Directive 86/609/EEC and were approved by the Local Ethical Committee. […] All animals were weighed and tumors were measured using manual caliper three times per week. SC tumor volumes were calculated according to the formula described by Attia and Weiss (Attia M A, et. al. “Immunology of spontaneous mammary carcinomas in mice. V. Acquired tumor resistance and enhancement in strain A mice infected with mammary tumor virus” Cancer Res. 1966, vol. 26, pp, 1787-1800), V (mm^3)=0.4×(larger diameter×smaller diameter^2). […]

MiaPaca SC tumors = assay: Antitumoral efficacy in MiaPaca SC tumor model (athymic nu/nu mice); type: in vivo, mouse; details: 10 μg/Kg SC daily, 37 days after treatment
Method: It is depicted the antitumoral efficacy of G-CSF in human pancreatic SC tumors. Athymic nu/nu mice bearing MiaPaca SC tumors were daily treated with subcutaneous G-CSF injection at a dose of 10 μg/kg, while GE was injected intraperitoneal at a dose of 80 mg/Kg two times per week during the whole experiment. Total tumor volume (mm^3±SE) in saline (solid lines), G-CSF 10 μg/kg (dashed lines) and GE 80 mg/kg (dotted) groups, for 37 days of treatment are represented.
as §4, §5

Panc02 SC tumors = assay: Antitumoral efficacy in Panc02 SC tumor model (C57BJL6 mice); type: in vivo, mouse; details: Panc02, 100 μg/Kg SC daily, 20 days of treatment
Method: It is depicted the antitumoral efficacy of G-CSF in murine pancreatic SC tumors. C57BJL6 mice bearing Panc02 SC tumors were daily treated with subcutaneous G-CSF injection at a dose of 100 μg/kg. […]
as §4, §5

Colon-26 SC tumors [3] = assay: Antitumoral efficacy in Colon-26 SC tumor model (Balb/C mice); type: in vivo, mouse; details: Colon-26, 10 μg/Kg SC daily, 18 days of treatment
Method: It is depicted the antitumoral efficacy of G-CSF in mouse colorectal SC tumors. BalbC mice bearing colorectal SC tumors were daily treated with subcutaneous G-CSF injection at a dose of 10 μg/kg. Total tumor volume (mm^3±SE) in saline (solid lines) and G-CSF10 μg/kg (dashed lines) groups, for 18 days of treatment are represented.
Depiction of the antitumoral efficacy of G-CSF in colorectal SC tumors. BalbC mice bearing Colon-26 SC tumors, with and without Sephadex papula, were treated daily with subcutaneous G-CSF injection at a dose of 50 ug/kg. […]
as §5
Antitumoral experiments were carried out on immunocompetent Balb/C tumor-bearing mice treated with Sephadex. […] There were 4 animals per group and their survival was monitored daily (FIG. 6). […]

Colon-26 SC tumors [4] = assay: Effect of Sephadex on G-CSF antitumoral efficacy in Colon-26 model; type: in vivo, mouse; details: Colon-26 and Sephadex, 50 μg/Kg SC daily, 19 days
Method: Depiction of the antitumoral efficacy of G-CSF in colorectal SC tumors. BalbC mice bearing Colon-26 SC tumors, with and without Sephadex papula, were treated daily with subcutaneous G-CSF injection at a dose of 50 ug/kg. Total tumor volume (mm^3±SE) of saline (circle), G-CSF 50 μg/kg (square, abbreviated IT50), Sephadex-Saline (triangle), and Sephadex+G-CSF 50 μg/kg (cross, abbreviated IT-Sephadex.), for 19 days of treatment are represented.
Antitumoral experiments were carried out on immunocompetent Balb/C tumor-bearing mice treated with Sephadex. Sephadex treatments were initiated when SC Colon-26 tumors reached a tumor volume ranging from 90 to 110 mm^3 and 0.5 mL of Sephadex 16% (Sephadex G-150, Pharmacia Fine Chemicals, Sweden) was subcutaneously injected in the left side flank of mice. Control animals included were Saline and Sephadex groups. In this experiment, G-CSF group was treated at a dose of 50 μg/Kg (Filgrastim—Amgen). There were 4 animals per group and their survival was monitored daily (FIG. 6). In this model, Sephadex distracts functional granulocytes from the blood into the Sephadex papula thus abolishing G-CSF antitumoral activity. […]

[5] = test system: tumor-infiltrating granulocytes; assay: Tumor granulocytes (CD45+CD11b+Ly6G+) by flow cytometry in Colon-26 tumors; type: in vivo, mouse; details: 10 μg/Kg SC, day 5, flow cytometry
Method: Depiction of the tumor granulocyte levels, defined as a CD45+CD11b+Ly6G+ triple positive population, analyzed by flow cytometry from Colon-26 tumors treated with 10 μg/kg of G-CSF during 5 days. Granulocytes cells from tumor are represented as a % of positive cells±SE.
To evaluate the antitumoral capacity of G-CSF in murine colorectal carcinoma, immunocompetent Balb/C mice bearing Colon-26 tumors were treated when SC tumors reached a tumor volume ranging from 90 to 110 mm^3. For G-CSF therapy, Balb/C mice were randomly divided in Saline and G-CSF groups. G-CSF treatment (Filgrastim—Amgen) was applied subcutaneously every day during the whole experiment (FIG. 4). At day 5 of the experiments, 4 animals of each treatment were sacrificed and tumors were collected. Granulocytes (GRA) cells were detected by FACS, analyzing the markers of these cells: CD45+CD11b+Ly6G (FIG. 5). Details about each treatment are described in the present table: […]

[6] = test system: peripheral blood granulocytes; assay: Peripheral blood granulocyte levels in athymic nu/nu mice bearing MiaPaca SC tumors; type: in vivo, mouse; details: MiaPaca tumor-bearing nu/nu mice, first SC injection at 10, 25, 50 and 100 μg/kg, blood at 1.5 hr
Method: Depiction of peripheral blood granulocytes levels in Athymic nu/nu mice bearing MiaPaca SC tumors after the subcutaneous injection of G-CSF 10, 25, 50 and 100 μg/kg. Blood samples were taken at 1.5 hr and peripheral blood granulocytes levels are represented as a total number of granulocytes (GRA 10^9/L).
as §3, with “C57BJL6 healthy mice were injected with G-CSF 10 μg/kg and healthy athymic nu/nu mice were injected with different doses of G-CSF: 0, 10, 25, 50 and 100 μg/kg (FIG. 7). Athymic nu/nu mice bearing subcutaneous MiaPaca tumor were injected with G-CSF 10, 25, 50 and 100 μg/kg and blood was extracted at 1.5 hr (FIG. 8).” left out

[7] = test system: neutrophils in peripheral blood; assay: Peripheral blood neutrophil levels in Colon-26 mice with Sephadex; type: in vivo, mouse; details: Sephadex-treated Colon-26 mice
Method: Antitumoral experiments were carried out on immunocompetent Balb/C tumor-bearing mice treated with Sephadex. Sephadex treatments were initiated when SC Colon-26 tumors reached a tumor volume ranging from 90 to 110 mm^3 and 0.5 mL of Sephadex 16% (Sephadex G-150, Pharmacia Fine Chemicals, Sweden) was subcutaneously injected in the left side flank of mice. Control animals included were Saline and Sephadex groups. In this experiment, G-CSF group was treated at a dose of 50 μg/Kg (Filgrastim—Amgen). There were 4 animals per group and their survival was monitored daily (FIG. 6). In this model, Sephadex distracts functional granulocytes from the blood into the Sephadex papula thus abolishing G-CSF antitumoral activity.
as §2

| Molecule | therapeutic effect in melanoma patients (melanoma) | therapeutic benefit in prostate cancer patients (prostate cancer) | therapeutic benefit in sarcoma (sarcoma) | increase of granulocyte levels compared to untreated animals ([1]; single SC dose 10 μg/Kg) | time of maximum peripheral blood granulocyte levels post-G-CSF injection ([1]; single SC injection) | increase of granulocyte levels compared to untreated animals ([2]; single SC dose 10 μg/Kg) | increase of granulocyte levels compared to untreated animals ([2]; single SC dose 25 μg/Kg) | increase of granulocyte levels compared to untreated animals ([2]; single SC dose 50 μg/Kg) | increase of granulocyte levels compared to untreated animals ([2]; single SC dose 100 μg/Kg) | time of maximum peripheral blood granulocyte levels post-G-CSF injection ([2]; single SC injection) | tumor inhibition compared to saline (Panc-1 SC tumors) | tumor inhibition compared to saline (MiaPaca SC tumors) | tumor inhibition compared to saline (Panc02 SC tumors) | tumor inhibition (Colon-26 SC tumors [3]) | tumor inhibition (Colon-26 SC tumors [4]) | tumor-infiltrating granulocytes (CD45+CD11b+Ly6G+ triple positive population) [5] | peripheral blood granulocyte levels [6] | neutrophils levels in peripheral blood after G-CSF injection [7] |
| --- | --- | --- | --- | --- | --- | --- | --- | --- | --- | --- | --- | --- | --- | --- | --- | --- | --- | --- |
| GM-CSF: Granulocyte Macrophage Colony Stimulating Factor, recombinant protein; only literature results cited | therapeutic effect | therapeutic benefit | did not reveal a therapeutic benefit | – | – | – | – | – | – | – | – | – | – | – | – | – | – | – |
| B1 | – | – | – | 2.5 fold | 6 h | 2.5 fold | 3.5 fold | 3.7 fold | 3.5 fold | 6 h | up to 90% | up to 55% | around 50% | up to 60% | 50% | significant increase | increase in a dose response manner | smoothly recovered |
